Assay results taken from PMC9553925.

How the values were obtained:
[1] = target: Trypanosoma brucei mitochondrial F1Fo ATP synthase (monomer unit of the dimer) (T. brucei (endogenous in procyclic Lister strain 427)) (UniProt P24499); assay: cryo-EM structure; ATP synthase dimers purified from T. brucei procyclic mitochondria in GDN with added β-DDM and phospholipids, pH 8.0; consensus dimer 3.2 Å, membrane region 2.7 Å, peripheral stalk 3.7 Å, rotor 3.7 Å, ten rotational substates 3.5–4.3 Å
[2] = target: ATP synthase subunit-c (T. brucei) (T. brucei (endogenous in procyclic Lister strain 427)); assay: as above

Substance	stoichiometry N [1]	stoichiometry N [2]
Trypanosoma brucei mitochondrial F1Fo ATP synthase (monomer unit of the dimer) (from UniProt P24499 1-229) (complex)	2	–
ATP synthase subunit-c (T. brucei) (natural protein)	–	10
